Results reported in publication PMC8239413.

Target: truncated RBD variant RBD-215 (amino acids R319-L533), plant-produced (SARS-CoV-2) (UniProt P0DTC2)
Experiment: SEC; IMAC-purified RBD-215 (Supplementary Figure 4)

“truncated RBD variant RBD-215 (amino acids R319-L533), plant-produced (from UniProt P0DTC2 319-533) (domain or fragment)” showed a percent dimers of 10%.
